Key:
[1] = substrate: Cc1c(Sc2ccc(C(=O)N[C@@H](CCC(=O)O)C(=O)O)cc2)[nH]c2nc(N)[nH]c(=O)c12; test: Activity of human recombinant cytosolic FPGS
[2] = substrate: Cc1c(Sc2ccc(C(=O)N[C@@H](CCC(=O)O)C(=O)O)cc2)[nH]c2nc(N)[nH]c(=O)c12; test: (§1) Activity of human recombinant cytosolic FPGS relative to aminopterin
[3] = substrate: Nc1nc(N)c2nc(CNc3ccc(C(=O)N[C@@H](CCC(=O)O)C(=O)O)cc3)cnc2n1; test: as §1

B1: Folylpolyglutamate synthase, mitochondrial (Homo sapiens), Q05932 (protein)
chain: MSRARSHLRAALFLAAASARGITTQVAARRGLSAWPVPQEPSMEYQDAVRMLNTLQTNAGYLEQVKRQRGDPQTQLEAMELYLARSGLQVEDLDRLNIIHVTGTKGKGSTCAFTECILRSYGLKTGFFSSPHLVQVRERIRINGQPISPELFTKYFWRLYHRLEETKDGSCVSMPPYFRFLTLMAFHVFLQEKVDLAVVEVGIGGAYDCTNIIRKPVVCGVSSLGIDHTSLLGDTVEKIAWQKGGIFKQGVPAFTVLQPEGPLAVLRDRAQQISCPLYLCPMLEALEEGGPPLTLGLEGEHQRSNAALALQLAHCWLQRQDRHGAGEPKASRPGLLWQLPLAPVFQPTSHMRLGLRNTEWPGRTQVLRRGPLTWYLDGAHTASSAQACVRWFRQALQGRERPSGGPEVRVLLFNATGDRDPAALLKLLQPCQFDYAVFCPNLTEVSSTGNADQQNFTVTLDQVLLRCLEHQQHWNHLDEEQASPDLWSAPSPEPGGSASLLLAPHPPHTCSASSLVFSCISHALQWISQGRDPIFQPPSPPKGLLTHPVAHSGASILREAAAIHVLVTGSLHLVGGVLKLLEPALSQ
Km [1]: 5.1 µM
Vmax [2]: 0.29
Vmax [3]: 1
